Measured values from publication PMC3008968.

B1: fetuin (fetal calf serum) (natural protein)
chain: IPLDPVAGYKEPACDDPDTEQAALAAVDYINKHLPRGYKHTLNQIDSVKVWPRRPTGEVYDIEIDTLETTCHVLDPTPLANCSVRQQTQHAVEGDCDIHVLKQDGQFSVLFTKCDSSPDSAEDVRKLCPDCPLLAPLNDSRVVHAVEVALATFNAESNGSYLQLVEISRAQFVPLPVSVSVEFAVAATDCIAKEVVDPTKCNLLAEKQYGFCKGSVIQKALGGEDVRVTCTLFQTQPVIPQPQPDGAEAEAPSAVPDAAGPTPSAAGPPVASVVVGPSVVAVPLPLHRAHYDLRHTFSGVASVESSSGEAFHVGKTPIVGQPSIPGGPVRLCPGRIRYFKI
B2: Asialofetuin (natural protein)
chain: B1 chain
modifications: asialo form (asialofetuin)

What was measured:
[1] = target: Cephalosporium lectin (Cephalosporium (isolated from the corneal smears of a keratitis patient)); assay: SEC; gel filtration on a Superdex G-75 column in PBS, calibrated with standard proteins; 57 kDa compared with the 14 kDa subunit mass by SDS-PAGE
[2] = target: Cephalosporium lectin (Cephalosporium (isolated from the corneal smears of a keratitis patient))

Row | Molecule | stoichiometry N [1] | minimum concentration required to inhibit hemagglutination of trypsinized human erythrocytes by CSL (hapten inhibition, MIC) [2] [μg/50 μl]
1 | Cephalosporium lectin (natural protein) | 4 | 
2 | Mucin (porcine stomach, type III) (natural protein) |  | 0.785
3 | B1 |  | 6.25
4 | B2 |  | 12.5
